Experimental findings from patent US7910549 (INSTITUTE OF VIROLOGY OF THE SLOVAK ACADEMY OF SCIENCES, dated 2011) are described below.

Where no end group is shown, it is not given here.

B1: oligopeptide … (aa 75-98) [SEQ ID NO: 106] (peptide)
peptide: EDPPGEEDLPGEEDLPGEEDLPEV

For assay [1], the target named is T1, GST-MN fusion protein (MN glutathione S-transferase), expressed in bacteria from pGEX-3X-MN (human, UniProt Q16790 38-459). Put plainly: phage display panning on GST-MN, elution with acetazolamide.
Assay [2] has as its target T2, monoclonal antibody M75 (MAb M75), secreted by hybridoma VU-M75, ATCC HB 11128.
T2 construct: Mouse IgG; used as ascites fluid in the ELISA and in the cell adhesion tests; also called MAb 75
The assay is described as follows: competition ELISA (peptide against immobilized GST-MN for M75).

The target in assay [3] is T1, GST-MN fusion protein (MN glutathione …). The assay is described as follows: phage display (Ph.D.-7): panning on wells coated with GST-MN, elution by acetazolamide, 3 rounds.
Assay [4] addresses B1. Put plainly: phage display (Ph.D.-7): panning on immobilized peptide SEQ ID NO: 106, elution with M75, 5 cycles.
The target of assay [5] is T1, GST-MN fusion protein (MN glutathione …). Put plainly: competition ELISA on immobilized GST-MN; competitor M75.

GQTRSPL [phage-displayed heptapeptide GQTRSPL (SEQ ID NO: 109)]: in assay [1], the binding result was “binds”.

Regarding B1, the half-maximal inhibitory concentration (IC50) in assay [2] is 1 ng/mL.

On to GETRAPL [phage-displayed heptapeptide GETRAPL (SEQ ID NO: 107)], for which the binding result in assay [3] is reported as “binds”.

As to GETREPL [phage-displayed heptapeptide GETREPL (SEQ ID NO: 108)], in assay [3], the binding result was “binds”.

As to KKMKRRK, the binding result in assay [4] is on record as “binds”.

For the molecule ITFNAQY, in assay [4], the binding result is given as “binds”.

For SASAPVS, in assay [4], the binding result is “binds”.

B2: nonapeptide AKKMKRRKA [SEQ ID NO: 137] (peptide)
peptide: AKKMKRRKA-NH2
notes: Synthetic; phage-selected heptapeptide with alanine added on both sides
B2: in assay [5], the binding result is “binds”.

B3: nonapeptide AITFNAQYA [SEQ ID NO: 138] (peptide)
peptide: AITFNAQYA-NH2
notes: as for B2
Take B3: the binding result in assay [5] is reported as “binds”.

B4: nonapeptide ASASAPVSA [SEQ ID NO: 139] (peptide)
peptide: ASASAPVSA-NH2
notes: as for B2
As for B4, the binding result in assay [5] is reported as “binds”.
